{"source": "paper doi:10.1101/243402v1", "proteins": {"B1": {"name": "SjaM1Pase2 (Saccharina japonica) (protein)", "chain": "MEQATANKDISILFDFDGTIGDTETPAMEVAFWELAPYLPDTTPDKLDNLMPEFVRDNAGKAFEFMVETVDEERKAAGMDSVEEMFAAKSEPQNMLDAVDPHRKKFGLKSFAELRAPEGGEAATLLIQQKTETVDALSKIAQPCNGVREVLAALTAATVPFCISTTSPKPRVPASITACGLDEYFPPDKVHSGESDFDPPRFKPNPSVYLKAAETEGKEPVNCIAVEDSGSGVGSASNAGVGLTVGYVGASHIPEYKKDTHAEMLMAGGRAENGKGAEIVISDMKDLLKIIDFFAGAKTAGKLAPFDFPTAMVASMQQPVWVHGKKA"}}, "substrate": "O=P(O)(O)OC[C@@H](O)[C@@H](O)[C@H](O)[C@H](O)CO", "assay": "purified protein", "details": "100 mM Tris-HCl", "data": [{"protein": "B1", "values": [{"measurement": "Km", "result": 20, "unit": "µM"}]}]}
